In patent publication US20250027068:

Molecular target: pooled human IgG (human IgG1, 2, 3 and 4)

Protein | Enzyme Activity Endpoint Assay (purified): Fab′2 [ng/µL] | Enzyme Activity Endpoint Assay (purified): Fc [ng/µL] | Enzyme Activity Endpoint Assay (purified): IgG [ng/µL] | Enzyme Activity Endpoint Assay (purified): scIgG [ng/µL] | Enzyme Activity Endpoint Assay: Fab′2 [ng/µL] | Enzyme Activity Endpoint Assay: Fc [ng/µL] | Enzyme Activity Endpoint Assay: IgG [ng/µL] | Enzyme Activity Endpoint Assay: scIgG [ng/µL]
PRT-412 (protein) MVTSVWTKGVTPPADFTQGEDVFHAPYVANQGWYDITKTFNGKDDLLCGAATAGNMLHWWFDQNKEYIEAYLKKHPEKQKIMFGDQELLDVRKAINTKGSQKNSELFNYFRDKAFPNLSARRLGVMPDLVLDMFINGYYLNVTKTQTTDVNRTYQEKDKRGGIFDAVFTRGDQSKLLTSRHDFKEKGLKEISDLIKQELTEGKALGLSHTYANVRINHVINLWGADFDSDGNLKAIYVTDSDSNASIGMKKYFVGVNAAGKVAISAKEIKEDNIGAQVLGLFTLSTGQDIWNQTN | 518 | 103 | 0 | 170 | – | – | – | –
PRT-398 (protein) MVTSVWTKGVTPPADFTQGEDVFHAPYVANQGWYDITKTFNGKDDLLCGAATAGNMLHWWFDQNKEYIEAYLKKHPEKQKIMFGDQELLDVRKAINTKGSQKNSELFNYFRDKAFPNLSARRLGVMPDLVLDMFINGYYLNVTKTQTTDVNRTYQEKDKRGGIFDAVFTRGDQSKLLTSRHDFKEKGLKEISDLIKQELTEGKALGLSHTYANVRINHVINLWGADFDSDGNLKAIYVTDSDSNASIGMKKYDVGVNSAGKVAISAKEIKEDNIGAQVLGLFTLSTGQDIWNQTN | 555 | 370 | 0 | 196 | 555 | 370 | 0 | 196
PRT-405 (protein) MVTSVWTKGVTPPADFTQGEDVFHAPYVANQGWYDITKTFNGKDDLLCGAATAGNMLHWWFDQNKEYIEAYLKKHPEKQKIMFGDQELLDVRKAINTKGSQKNSELFNYFRDKAFPNLSARRLGVMPDLVLDMFINGYYLNVTKTQTTDVNRTYQEKDKRGGIFDAVFTRGDQSKLLTSRHDFKEKGLKEISDLIKQELTEGKALGLSHTYANVRINHVINLWGADFDSDGNLKAIYVTDSDSNASIGMKKYGVGVNSAGKVAISAKEIKEDNIGAQVLGLFTLSTGQDIWNQTN | 86 | 218 | 406 | 558 | – | – | – | –
PRT-397 (protein) MVTSVWTKGVTPPADFTQGEDVFHAPYVANQGWYDITKTFNGKDDLLCGAATAGNMLHWWFDQNKEYIEAYLKKHPEKQKIMFGDQELLDVRKAINTKGSQKNSELFNYFRDKAFPNLSARRLGVMPDLVLDMFINGYYLNVTKTQTTDVNRTYQEKDKRGGIFDAVFTRGDQSKLLTSRHDFKEKGLKEISDLIKQELTEGKALGLSHTYANVGINHVINLWGADFDSDGNLKAIYVTDSDSNASIGMKKYFVGVNSAGKVAISAKEIKEDNIGAQVLGLFTLSTGQDIWNQTN | 102 | 243 | 93 | 498 | – | – | – | –
PRT-406 (protein) MVTSVWTKGVTPPADFTQGEDVFHAPYVANQGWYDITKTFNRKDDLLCGAATAGNMLHWWFDQNKEYIEAYLKKHPEKQKIMFGDQELLDVRKAINTKGSQKNSELFNYFRDKAFPNLSARRLGVMPDLVLDMFINGYYLNVTKTQTTDVNRTYQEKDKRGGIFDAVFTRGDQSKLLTSRHDFKEKGLKEISDLIKQELTEGKALGLSHTYANVRINHVINLWGADFDSDGNLKAIYVTDSDSNASIGMKKYFVGVNSAGKVAISAKEIKEDNIGAQVLGLFTLSTGQDIWNQTN | 435 | 299 | 135 | 108 | 435 | 299 | 135 | 108
PRT-420 (protein) MTITSVWTKGVTPPTPEDFRYNNEDVLHAPYVANQGWYDITKTFDGKDNLLCGAATAGNMLHWWFDQNKEEIERYLKKHPEKQKIIFNNQEWFDVKAAIDTKDSQTNSKLFNYFRDKAFPNLSARQLGVMPDLVLDMFINGYYLNLGKTQSTDVNRPYQDKDKRGGIFDAVFTRGDQTTLLTARHDLKNKGLNEISDLIKQELTEGKALALSHTYANVRINHVINLWGADFDAEGNLIAIYVTDSDANASIGMKKYFVGVNANGKVAISAKKIEGDNIGAQVLGLFTLSTGQDIWQKLS | 515 | 300 | 125 | 0 | – | – | – | –
PRT-421 (protein) MTITSVWTKGVTPPTPEDFRYNNEDVLHAPYVANQGWYDITKTFDGKDNLLCGAATAGNMLHWWFDQNKEEIERYLKKHPEKQKIIFNNQELFDVKAAIDTKDSQTNSKLFDYFRDKAFPNLSARQLGVMPDLVLDMFINGYYLNLGKTQSTDVNRPYQDKDKRGGIFDAVFTRGDQTTLLTARHDLKNKGLNEISDLIKQELTEGKALALSHTYANVRINHVINLWGADFDAEGNLIAIYVTDSDANASIGMKKYFVGVNANGKVAISAKKIEGDNIGAQVLGLFTLSTGQDIWQKLS | 612 | 340 | 71 | 0 | – | – | – | –
PRT-428 (protein) MTITSVWTKGVTPPTPEDFRYNNEDVLHAPYVANQGWYDITKTFDGKDNLLCGAATAGNMLHWWFDQNKEEIERYLKKHPEKQKIIFNNQELFDVKAAIDTKDSQTNSKLFNYFRDKAFPNLSARQLGVMPDLVLDMFINGYYLNLGKTQSTDVNRPYQDKDKRGGIFDAVFTRGDQTTLLTARHDLKNKGLNEISDLIKQELTEGKALALSHTYANVRINHVINLWGADFDAEGNLIAIYVTDSDTNASIGMKKYFVGVNANGKVAISAKKIEGDNIGAQVLGLFTLSTGQDIWQKLS | 505 | 336 | 90 | 119 | – | – | – | –
PRT-413 (protein) MTITSVWTKGVTPPTPEDFRENNEDVLHAPYVANQGWYDITKTFDGKDNLLCGAATAGNMLHWWFDQNKEEIERYLKKHPEKQKIIFNNQELFDVKAAIDTKDSQTNSKLFNYFRDKAFPNLSARQLGVMPDLVLDMFINGYYLNLGKTQSTDVNRPYQDKDKRGGIFDAVFTRGDQTTLLTARHDLKNKGLNEISDLIKQELTEGKALALSHTYANVRINHVINLWGADFDAEGNLIAIYVTDSDANASIGMKKYFVGVNANGKVAISAKKIEGDNIGAQVLGLFTLSTGQDIWQKLS | 485 | 347 | 14 | 152 | – | – | – | –
PRT-429 (protein) MTITSVWTKGVTPPTPEDFRYNNEDVLHAPYVANQGWYDITKTFDGKDNLLCGAATAGNMLHWWFDQNKEEIERYLKKHPEKQKIIFNNQELFDVKAAIDTKDSQTNSKLFNYFRDKAFPNLSARQLGVMPDLVLDMFINGYYLNLGKTQSTDVNRPYQDKDKRGGIFDAVFTRGDQTTLLTARHDLKNKGLNEISDLIKQELTEGKALALSHTYANVRINHVINLWGADFDAEGNLIAIYVTDSDARASIGMKKYFVGVNANGKVAISAKKIEGDNIGAQVLGLFTLSTGQDIWQKLS | 528 | 348 | 57 | 171 | – | – | – | –
PRT-381 (protein) MVTSVWTKGVTPPTNFTYGEDVLHAPYVANQGWYDITKTFNGKDDLLCGAATAGNMLHWWFDQNKEQIENYLKKHPEKQKINFNGEQMFDVKEAIDTKDSQLDSKLFEYFKEKAFPYLSTKHLGVFPDHVIDMFINGYRLSLTNHGPTPVKRGSKDPRGGIFDAVFTRGDQSKLLTNRHDFKEKTLKEISDLIKQELTEGKALGISHTYANVRINHVINLWGADFDAEGNLEAIYVTDSDSNPSIGMKKYFVGVNSNGKVAISAKEIEEDNIGAQVLGLFTLSTGQDIWNQTN | 486 | 334 | 0 | 194 | – | – | – | –
PRT-390 (protein) MVTSVWTKGVTPPTNFTYGEDVLHAPYVANQGWYDITKTFNGKDDLLCGAATAGNMLHWWFDQNKEQIENYLKKHPEKQKINFNGEQLFDVKEAIDTKDSQLDSKLFEYFKEKAFPYLSTKHLGVFPDHVIDMFINGYRLSLTNHGPTPVKRGSKDPRGGIFDAVFTRGDQSKLLTNRHDFKEKTLKEISDLIKQELTEGKALGISHTYANVRINHVINLWGADFDAEGNLEAIYVTDSDSNASIGMKKYFVGVNSNGKVAISAKEIEEDNIGAQVLGLFTLSTGQDIWNQTN | 578 | 371 | 0 | 227 | 578 | 371 | 0 | 227
PRT-382 (protein) MVTSVWTKGVTPPTNFTYGEDVLHAPYVANQGWYDITKTFNGKDDLLCGAATAGNMLHWWFDQNKEQIENYLKKHPEKQKINFNGEQMFDVKEAIDTKDSQLDSKLFEYFKEKAFPYLSTKHLGVFPDHVIDMFINGYRLSLTNHGPTPVKRGSKDPRGGIFDAVFTRGDQSKLLTNRHDFKEKTLKEISDLIKQELTEGKALGISHTYANVRINHVINLWGADFDAEGNLEAIYVTDSDSNASIGMKKYVVGVNSNGKVAISAKEIEEDNIGAQVLGLFTLSTGQDIWNQTN | 585 | 380 | 0 | 226 | – | – | – | –
PRT-389 (protein) MVTSVWTKGVTPPTNFTYGEDVLHAPYVANQGWYDITKTFNGKDDLLCGAATAGNMLHWWFDQNKEQIENYLKKHPEKQKINFKGEQMFDVKEAIDTKDSQLDSKLFEYFKEKAFPYLSTKHLGVFPDHVIDMFINGYRLSLTNHGPTPVKRGSKDPRGGIFDAVFTRGDQSKLLTNRHDFKEKTLKEISDLIKQELTEGKALGISHTYANVRINHVINLWGADFDAEGNLEAIYVTDSDSNASIGMKKYFVGVNSNGKVAISAKEIEEDNIGAQVLGLFTLSTGQDIWNQTN | 479 | 340 | 32 | 219 | – | – | – | –
